US20150024402A1

Assays:
[1] = target: Human Serum Albumin (HSA) (human) (UniProt P02768); assay: LSPR absorbance shift of HSA-conjugated gold nanorods; 37.5 ug/mL HSA (partial coverage), BSA block, 60 min incubation
[2] = target: Human Serum Albumin (HSA) (human) (UniProt P02768); assay: LSPR absorbance shift of HSA-conjugated gold nanorods; carboxyl groups blocked with BSA at 200 ug/mL, 60 min incubation
[3] = target: Human Serum Albumin (HSA) (human) (UniProt P02768); assay: LSPR absorbance shift of HSA-conjugated gold nanorods; 18.75 ug/mL HSA (partial coverage), BSA block, 60 min incubation
[4] = target: Human Serum Albumin (HSA) (human) (UniProt P02768); assay: LSPR absorbance shift of HSA-conjugated gold nanorods; carboxyl groups blocked with ovalbumin at 200 ug/mL, 60 min incubation
[5] = target: Human Serum Albumin (HSA) (human) (UniProt P02768); assay: LSPR absorbance shift of HSA-conjugated gold nanorods; carboxyl groups blocked with mPEG-NH2 at 16700 ug/mL, 60 min incubation
[6] = target: Human Serum Albumin (HSA) (human) (UniProt P02768); assay: LSPR absorbance shift of HSA-conjugated gold nanorods in suspension, dose response at equilibrium; 18.75 ug/mL HSA (partial coverage), BSA block, 30 min incubation
[7] = target: Human Serum Albumin (HSA) (human) (UniProt P02768); assay: LSPR absorbance shift of HSA-conjugated gold nanorods; 600 ug/mL HSA (full coverage), BSA block, 60 min incubation; filing says the value deviates through ligand depletion
[8] = target: Human Serum Albumin (HSA) (human) (UniProt P02768); assay: LSPR absorbance shift of HSA-conjugated gold nanorods in suspension, dose response at equilibrium; 600 ug/mL HSA (full coverage), BSA block, 30 min incubation; filing says the value deviates through ligand depletion

Sequence of UniProt P02768 (P02768 25-609 limits assumed): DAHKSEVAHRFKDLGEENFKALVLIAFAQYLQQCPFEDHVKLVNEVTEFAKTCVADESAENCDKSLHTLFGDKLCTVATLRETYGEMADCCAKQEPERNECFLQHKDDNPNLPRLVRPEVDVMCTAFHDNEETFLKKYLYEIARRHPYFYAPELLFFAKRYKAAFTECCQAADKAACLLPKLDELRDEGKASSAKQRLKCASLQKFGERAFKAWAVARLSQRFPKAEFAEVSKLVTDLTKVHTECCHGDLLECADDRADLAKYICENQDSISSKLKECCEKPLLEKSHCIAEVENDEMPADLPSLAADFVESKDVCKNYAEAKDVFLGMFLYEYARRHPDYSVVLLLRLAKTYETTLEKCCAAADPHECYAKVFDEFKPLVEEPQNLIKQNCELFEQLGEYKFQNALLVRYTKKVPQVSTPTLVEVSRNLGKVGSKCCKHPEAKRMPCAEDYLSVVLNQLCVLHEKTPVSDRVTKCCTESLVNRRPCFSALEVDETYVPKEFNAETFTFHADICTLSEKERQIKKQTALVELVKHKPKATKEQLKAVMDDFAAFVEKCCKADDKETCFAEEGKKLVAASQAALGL

- Kd [1]: 5.5 nM
- Kd [2]: 8.44 nM
- Kd [3]: 3.8 nM
- Kd [4]: 5.22 nM
- Kd [5]: 2.5 nM
- Kd [6]: 6.41 nM
- Kd [7]: 252 nM
- Kd [8]: 99.4 nM
Substance: Anti-Human Serum Albumin monoclonal antibody (ab18081, available from Abcam)
